From patent US20090074722A1, “Products and methods for treating PTP lar diseases” (MAX-PLANCK-GESELLSCHAFT ZUR, priority 1999, published 2009)

Target: T1, tyrosine phosphorylated β-catenin (Homo sapiens, UniProt P35222)
T1 construct: expressed in transfected cells; host or cells: human 293 embryonic kidney cells, transient; CMV-promoter vector; immunoprecipitated with anti-β-catenin antibody
T1 sequence (P35222 1-781): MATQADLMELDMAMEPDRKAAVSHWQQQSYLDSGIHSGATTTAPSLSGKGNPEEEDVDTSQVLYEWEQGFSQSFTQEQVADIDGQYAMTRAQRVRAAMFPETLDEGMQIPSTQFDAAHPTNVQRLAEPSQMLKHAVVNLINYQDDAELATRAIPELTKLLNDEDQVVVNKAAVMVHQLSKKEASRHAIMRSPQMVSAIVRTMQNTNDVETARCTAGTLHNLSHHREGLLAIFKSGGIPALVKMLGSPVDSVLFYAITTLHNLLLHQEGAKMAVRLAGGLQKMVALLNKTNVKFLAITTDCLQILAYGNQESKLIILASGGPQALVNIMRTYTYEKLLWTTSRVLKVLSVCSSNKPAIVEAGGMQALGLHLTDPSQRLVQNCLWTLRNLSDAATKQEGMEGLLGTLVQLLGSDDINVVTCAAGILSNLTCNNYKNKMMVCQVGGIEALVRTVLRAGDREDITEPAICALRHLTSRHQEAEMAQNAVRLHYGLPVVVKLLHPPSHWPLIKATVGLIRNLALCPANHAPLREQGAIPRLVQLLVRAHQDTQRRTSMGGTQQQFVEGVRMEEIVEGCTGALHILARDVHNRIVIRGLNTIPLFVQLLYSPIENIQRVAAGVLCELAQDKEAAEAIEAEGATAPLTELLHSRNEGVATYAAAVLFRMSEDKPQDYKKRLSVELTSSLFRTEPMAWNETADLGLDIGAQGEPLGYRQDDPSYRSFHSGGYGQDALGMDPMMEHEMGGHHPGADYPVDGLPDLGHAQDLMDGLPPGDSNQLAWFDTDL
Assay: In vitro dephosphorylation assay
Type: biochemical
Settings: 200 ng GST fusion protein, 25° C.; within the first five minutes; anti-phosphotyrosine Western blot
Method: After 24 h of serum starvation, the cells were stimulated with pervanadate before lysis. β-catenin was subsequently immunoprecipitated with an anti-β-catenin antibody, and precipitates were incubated for the indicated time intervals with GST-PTP LAR cytoplasmic fusion protein (left), GST-PTP LAR PTP D1 C1522S-mutant (middle) or GST-PTP LAR PTP D2 C1813S-mutant (right). Reactions were terminated after the indicated periods of time, and proteins were separated by SDS-PAGE. Tyrosine phosphorylation levels of […] were analyzed by Western blotting with an anti-phosphotyrosine antibody (top). […] Arrows indicate the proteins of interest.
In Vitro Dephosphorylation Assay—β-catenin was transiently overexpressed in human 293 embryonic kidney cells. Cells were serum-starved, treated with pervanadate ([…]/0.1 mM Na-orthovanadate) for 10 minutes and lysed. Immunoprecipitations were performed as described above except that HNTG without pyrophosphate, ammonium-molybdate, and Na-orthovanadate was used. PTP activity towards tyrosine phosphorylated β-catenin was assayed in 200 μL reactions at 25° C. containing 25 mM HEPES, pH 7.5, 5 mM EDTA, 10 mM DTT, and 1 mg/mL BSA with 200 ng of GST-hPTP LAR cytoplasmic, GST-hPTP LAR D1 C1522S, or GST-hPTP LAR D2 C1813S added. Reactions were stopped by washing with HNTG and subsequently separated by SDS-PAGE. The tyrosine phosphorylation status was analyzed by Western blotting using anti-phosphotyrosine antibody.
The association of β-catenin and plakoglobin with PTP LAR prompted the investigation of whether these proteins could represent actual substrates for PTP LAR. […] After different time intervals, the reactions were terminated and analyzed with an anti-phosphotyrosine specific antibody.

B1: GST-PTP LAR cytoplasmic: GST fusion protein comprising the entire cytoplasmic domain (amino acids 1259-1881) of human PTP LAR (protein)
chain: PEMLWVTGPVLAVILIILIVIAILLFKRKRTHSPSSKDEQSIGLKDSLLAHSSDPVEMRRLNYQTPGMRDHPPIPITDLADNIERLKANDGLKFSQEYESIDPGQQFTWENSNLEVNKPKNRYANVIAYDHSRVILTSIDGVPGSDYINANYIDGYRKQNAYIATQGPLPETMGDFWRMVWEQRTATVVMMTRLEEKSRVKCDQYWPARGTETCGLIQVTLLDTVELATYTVRTFALHKSGSSEKRELRQFQFMAWPDHGVPEYPTPILAFLRRVKACNPLDAGPMVVHCSAGVGRTGCFIVIDAMLERMKHEKTVDIYGHVTCMRSQRNYMVQTEDQYVFIHEALLEAATCGHTEVPARNLYAHIQKLGQVPPGESVTAMELEFKLLASSKAHTSRFISANLPCNKFKNRLVNIMPYELTRVCLQPIRGVEGSDYINASFLDGYRQQKAYIATQGPLAESTEDFWRMLWEHNSTIIVMLTKLREMGREKCHQYWPAERSARYQYFVVDPMAEYNMPQYILREFKVTDARDGQSRTIRQFQFTDWPEQGVPKTGEGFIDFIGQVHKTKEQFGQDGPITVHCSAGVGRTGVFITLSIVLERMRYEGVVDMFQTVKTLRTQRPAM
  tyrosine phosphorylation signal of β-catenin: significant reduction in the tyrosine phosphorylation signal
